Experimental data as given in PMC4685008.

Tests used:
[1] = molecular target: mGluR5 (endogenous) (UniProt Q3UVX5); assay: co-IP with myc antibody, mGluR5 blot
[2] = molecular target: mGluR5 (endogenous) (UniProt Q3UVX5); assay: co-IP of myc-Homer; details: reference: H2WT replacement; sites S117,S216

Homer1 (H1, long form) (from UniProt Q9Z2Y3) H1mycS117A
binding against the reference ([1]; reference: H1mycWT, sites S117): stronger

Homer2 (H2) (from UniProt Q9QWW1) H2mycS117/216AA
binding against the reference ([1]; reference: H2mycWT, sites S117,S216): stronger

Homer2 (H2) (from UniProt Q9QWW1) H2S117/216AA replacement
binding against the reference [2]: stronger
